Measured values from patent US20160053007A1.

Molecular target: DR3 on mouse CD4+ T cells (mouse)
Assay: cell-based or functional assay

Sequence of DR3 on mouse CD4+ T cells (mouse) (Q9QZZ6 19-201): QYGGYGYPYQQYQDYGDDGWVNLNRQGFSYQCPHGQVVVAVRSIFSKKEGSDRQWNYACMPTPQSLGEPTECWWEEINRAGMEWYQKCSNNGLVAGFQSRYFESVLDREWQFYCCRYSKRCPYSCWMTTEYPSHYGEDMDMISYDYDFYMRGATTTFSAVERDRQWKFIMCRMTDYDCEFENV

Substance “recombinant mouse TL1A (from UniProt Q5UBV8 76-252) (ligand)” has an IL-2 production by activated T cells, increase by TL1A of less than 2 fold, an IL-4 production by activated T cells, increase by TL1A of 10 fold and an interferon-γ production by activated T cells, increase by TL1A of less than 2 fold.
